The experiment deals with T1, σ1R oligomers-G proteins (Gi2, Go, Gq-11, Gz) (Mus musculus, UniProt O55242).
T1 construct: The coding region of the full-length murine σ1R (AF004927); GST (N); made in house; host or cells: E. coli BL21 (KRX) for σ1R; the G proteins come from solubilised mouse cerebral cortex synaptosomal membranes
Kind of experiment: Ex vivo fishing assay: G proteins of mouse solubilized brain membranes (SBM) bound to agarose-σ1R oligomers. The format is biochemical. The note with it: for effect on G protein binding to agarose-σ1R oligomers: 2 h, increasing concentrations, n = 3. How it is done: (A) The effect of σ1R deletion on opioid- and cannabinoid-induced analgesia. Analgesic compounds were icv-injected into wild-type and σ1R^−/− mice, and analgesia was evaluated 30 min after morphine (3 nmol) and β-End 1–31 (0.5 nmol), 15 min after DAMGO (0.1 nmol) and DPDPE (10 nmol) and 10 min after WIN55,212-2 (15 nmol). The bars are the mean ± SD of eight mice per strain and treatment. * Significant difference with respect to the effect of the analgesic substance in the wild-type group. ANOVA followed by the Holm–Sidak multiple comparisons test, p < 0.05, 1-β > 0.80. (B) Coprecipitation of G proteins with MORs. Solubilized mouse brain cortical membranes enriched in synaptosomes (SBM) from CD1 wild-type (WT) and σ1R^−/− mice were solubilized with sonication in the presence of 1% NP-40. Non-soluble debris was eliminated, and the samples were then incubated overnight at 4 °C with affinity-purified biotinylated IgGs that were raised against extracellular regions of the MOR. Protein complexes that were immunoprecipitated with streptavidin agarose were extensively washed and then resolved by SDS-PAGE. The target G proteins, alpha and beta subunits, were visualized by Western blotting (for further details, see Section 4). IP: immunoprecipitated protein, WB: Western blot. Detection of MORs: these proteins were detected with an anti-MOR antibody directed to the C-terminal sequence, a different amino acid sequence than that used for immunoprecipitation (second extracellular loop-2EL). In parallel blots, an antibody directed to the light IgG chain of the anti-MOR antibodies used for immunoprecipitation of MORs provided a loading control for the samples in the gels. […] The immunosignals of Gα subunits coprecipitated with MORs were referred to those of the MORs. Data are the mean ± SD of three determinations. ANOVA followed by the Holm–Sidak multiple comparisons test, p < 0.05, 1-β > 0.80. (C) Pull-down assays using mouse SBM. Cerebral cortex fractions enriched in synaptosomes from CD1 WT mice were solubilized with RIPA buffer and incubated for 2 h with recombinant σ1Rs covalently attached to agarose-NHS (Θ-σ1R). Agarose pellets containing the bound proteins were resolved by SDS-PAGE, and the G protein α subunits were probed in Western blots. The capture of σ1Rs and σ2Rs by Θ-σ1R was also determined in SBM from WT, σ1R^−/− and σ2R^−/− mice. […] Representative blots are shown. (D) Effect of ligands on the association of endogenous G proteins present in mouse SBM with Θ-σ1R oligomers produced in vitro (see Section 4). The Θ-σ1Rs were incubated with the SBM in the absence and presence of increasing concentrations of σ1R ligands. The G proteins that remained bound to Θ-σ1R oligomers were determined as in (C). […] For each compound and concentration studied data are the mean ± SD, n = 3. Data were analyzed by pairwise Holm–Sidak multiple comparison tests following ANOVA: p < 0.05, 1-β > 0.80.
For fishing studies, solubilization of neural synaptosomes from cerebral cortices or PAG was carried out at 4 °C in RIPA buffer. The membranes were incubated at 4 °C for 16 h with agitation, and then centrifuged at 10,000× g for 5 min. The supernatant was cleared with 20 μL of Sepharose 4B (#17-0120-01, GE Healthcare) pre-equilibrated for 1 h at 4 °C, followed by centrifugation at 4300× g for 5 min. The σ1R was immobilized through covalent attachment to N-Hydroxysuccinimide (NHS)-activated Sepharose 4 fast flow (4FF, #17-0906-01; GE) according to the manufacturer’s instructions.

T1 sequence (O55242 whole entry): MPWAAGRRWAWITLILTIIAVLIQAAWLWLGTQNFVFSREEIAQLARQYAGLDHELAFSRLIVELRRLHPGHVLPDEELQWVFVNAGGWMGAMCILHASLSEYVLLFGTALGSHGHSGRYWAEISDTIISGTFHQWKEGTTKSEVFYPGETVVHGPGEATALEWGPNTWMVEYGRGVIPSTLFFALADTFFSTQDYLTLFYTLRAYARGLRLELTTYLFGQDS

Take “β-End 1–27: β-End 1–31 derivative without 4 C-terminal residues (YGGFMTSEKSQTPLVTLFKNAIIKNAY; Beta-endorphin; UniProt P01189 237-263, looked up, fragment)”: the “effect on G protein binding to agarose-σ1R oligomers” value (from here on “effect on G protein binding”) (wild-type SBM) is recorded as “showed G-protein-releasing effects”. “^αN-acetyl β-End 1–31: β-End 1–31 acetylated at N terminal Y1, α position”: for the setting “SBM from σ2R−/− mice”, the “release of G proteins from σ1R oligomers in the absence of σ2Rs” value was “failed to release G proteins from σ1R oligomers”. For the setting “wild-type SBM”, the “concentrations needed for Gz to be freed from σ1R oligomers” value is recorded as “pM concentrations”; the “concentrations releasing Go, Gq-11 and Gi2 proteins from σ1R oligomers” value is on record as “fM concentrations”; the “effect on G protein binding” value is reported as “efficiently released G proteins from agarose-σ1Rs”. As to “KKGE [β-End 28–31, C-terminal tetrapeptide of β-End 1–31]”, for the setting “wild-type SBM”, the “effect on G protein binding” value is recorded as “showed G-protein-releasing effects”. On the same count and under the same terms, as for `Cl.O=C(OCCN1CCOCC1)C1(c2ccccc2)CCCCC1` [PRE084, 2-(4-morpholinethyl)-1-phenylcyclohexanecarboxylate hydrochloride, reference compound], the entry is “did not disrupt G protein binding to σ1R oligomers but increased the binding to Gz proteins”. Still for that read-out and setting: then `Cc1cc(OCCN2CCOCC2)nn1-c1ccc2ccccc2c1` [S1RA], with “exhibited G-protein-releasing effects”; and “β-End 1–26: β-End 1–31 derivative without 5 C-terminal residues (YGGFMTSEKSQTPLVTLFKNAIIKNA; Beta-endorphin; UniProt P01189 237-262, looked up, fragment)”, with “showed G-protein-releasing effects”.
